Source: patent US20110045604A1
Values belong to the substance of their own block, whether it stands above or below them.

What was measured:
[1] = target: SUMO-ARVCF peptide fusion protein (yeast); assay: SPR; linker mutant immobilised on Ni-NTA chip, SUMO-peptide fusion as analyte
[2] = target: SUMO-δ-catenin peptide fusion protein (yeast); assay: ratio of SPR Kd values, reference ARVCF peptide
[3] = target: SUMO-ARVCF peptide fusion protein, Ala substitution at position -4 (yeast); assay: SPR, Ala scanning; reference wild-type ARVCF peptide
[4] = target: SUMO-ARVCF peptide fusion protein, Ala substitution at position -5 (yeast); assay: as above
[5] = target: SUMO-ARVCF peptide fusion protein, Ala substitution at position -6 (yeast); assay: as above
[6] = target: SUMO-ARVCF peptide fusion protein, Ala substitution at position -7 (yeast); assay: as above
[7] = target: SUMO-δ-catenin peptide fusion protein (yeast); assay: binding analysis of purified protein; reference ARVCF peptide
[8] = target: SUMO-ARVCF peptide fusion protein (yeast); assay: SPR; clamp immobilised on Ni-NTA chip, SUMO-peptide fusion as analyte
[9] = target: SUMO-ARVCF peptide fusion protein (yeast); assay: SPR (BIAcore 2000); clamp immobilised on Ni-NTA chip, SUMO-peptide fusion as analyte
[10] = target: SUMO-ARVCF peptide fusion protein (yeast); assay: SPR; linker mutant against ePDZ-b with the GGSGG linker

Chain of ePDZ-b linker mutant GGSG (Q96RT1 other isoform, or with tags, fused parts or gaps, stated change not applied): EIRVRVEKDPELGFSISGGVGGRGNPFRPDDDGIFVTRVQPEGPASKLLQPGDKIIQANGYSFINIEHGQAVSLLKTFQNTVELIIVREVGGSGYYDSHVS
Chain of ePDZ-a linker mutant GGS (Q96RT1 other isoform, or with tags, fused parts or gaps, change not shown): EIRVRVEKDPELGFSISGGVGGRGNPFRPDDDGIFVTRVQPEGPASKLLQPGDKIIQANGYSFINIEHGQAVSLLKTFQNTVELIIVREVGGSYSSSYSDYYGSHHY
Chain of ePDZ-a linker mutant GGSG (Q96RT1 other isoform, or with tags, fused parts or gaps, change not shown): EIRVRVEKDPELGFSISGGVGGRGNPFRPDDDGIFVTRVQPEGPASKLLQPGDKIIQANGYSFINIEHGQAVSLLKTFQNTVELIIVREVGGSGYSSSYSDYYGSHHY
Chain of ePDZ-a linker mutant GG (Q96RT1 other isoform, or with tags, fused parts or gaps, change not shown): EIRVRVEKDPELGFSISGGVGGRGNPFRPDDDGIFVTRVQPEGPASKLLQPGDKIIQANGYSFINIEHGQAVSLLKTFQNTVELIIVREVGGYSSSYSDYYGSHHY
Chain of ePDZ-b linker mutant GGS (Q96RT1 other isoform, or with tags, fused parts or gaps, change not shown): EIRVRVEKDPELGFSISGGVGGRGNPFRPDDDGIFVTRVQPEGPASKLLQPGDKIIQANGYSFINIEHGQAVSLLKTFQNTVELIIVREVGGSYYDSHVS

Substance: ePDZ-b (from UniProt Q96RT1 1321-1410) (designed binder)
- Specificity Index (Kd for δ-catenin / Kd for ARVCF) [2]: > 446
- fold decrease in binding affinity against the wild-type ARVCF peptide [3]: > 5 fold
- ΔΔG upon Ala substitution of the ARVCF peptide [3]: > 3 kcal/mol
- fold decrease in binding affinity against the wild-type ARVCF peptide [4]: > 5 fold
- ΔΔG upon Ala substitution of the ARVCF peptide [4]: > 1 kcal/mol
- fold decrease in binding affinity against the wild-type ARVCF peptide [5]: > 5 fold
- ΔΔG upon Ala substitution of the ARVCF peptide [5]: > 1 kcal/mol
- fold decrease in binding affinity against the wild-type ARVCF peptide [6]: > 5 fold
- ΔΔG upon Ala substitution of the ARVCF peptide [6]: > 1 kcal/mol
- fold discrimination between the two targets [7]: 200 fold
- Kd [8]: 56 nM
- Kd [9]: 56 nM
- koff [9]: 0.011 s⁻¹
- kon [9]: 190000 M⁻¹ s⁻¹

Substance: ePDZ-b linker mutant GGS (from UniProt Q96RT1 1321-1410) (designed binder)
- Kd [1]: > 5000 nM

Substance: ePDZ-b linker mutant GGSG (from UniProt Q96RT1 1321-1410) (designed binder)
- fold reduction of binding affinity against the original linker [10]: 8 fold
- Kd [1]: 412 nM

Now from value to substance:

- Kd [1]: 311 nM
Substance: ePDZ-a linker mutant GG (from UniProt Q96RT1 1321-1410) (designed binder)

- Kd [1]: 134 nM
Substance: ePDZ-a linker mutant GGS (from UniProt Q96RT1 1321-1410) (designed binder)

- Kd [1]: 117 nM
Substance: ePDZ-a linker mutant GGSG (from UniProt Q96RT1 1321-1410) (designed binder)
